Experimental data published in patent US20160356794A1 (Merck Sharp & Dohme, published 2016).
No end group written: not given here.

Legend:
[1] = molecular target: h-Tau 441 (human Tau isoform 2-441, Accession No. NP 005901.2) (human, UniProt P10636 2-758); experiment: SPR, BIAcore CM3 sensor chip, immobilized h-Tau 441
Method: The binding affinity (Kd) of the 10H8 and 19G10 mAbs was determined by BIAcore CM3 sensor chip (Biacore, Piscataway, N.J.) using immobilized h-Tau 441 as the capture protein.

PPSSGEPPKSGDRSG = molecular target: T1, PPSSGEPPKSGDRSG (human); experiment: RepliTope peptide microarray, immobilized 15-mer, fluorescent secondary antibody
T1 construct: Synthetic peptide covalently immobilized on glass through a hydrophilic linker (RepliTope microarray)
T1 peptide: PPSSGEPPKSGDRSG
Source text: (§1) Epitope mapping of clones 10H8 and 19G10 was completed using JPT Peptide Technologies' RepliTope™ peptide microarrays. This technology consists in using purified synthetic peptides chemoselectively and covalently immobilized to the glass surface. An optimized hydrophilic linker moiety is inserted between the glass surface and the antigen derived peptide sequence to avoid false negatives caused by sterical hindrance. The peptides used spanned Tau mid region protein sequence of 166 amino acids between amino acid 104 and amino acid 269 (Tau 166). Peptides of 15 amino acids in length that extended downstream either 1 or 2 amino acids at a time were used in this experiment.
(§2) The assay was performed using an automated TECAN HS4X00 microarray processing station. Microarrays were washed, incubated with blocking buffer for 60 min at 30° C., and subsequently with clones […] and 19G10 diluted in blocking buffer for 120 min at 30° C. Microarrays were washed and incubated with secondary antibody diluted in blocking buffer for 45 min at 30° C. and then dried. The quantification was performed using high resolution fluorescence scanner. The resulting images were analyzed and quantified using spot-recognition software GenePix (Molecular Devices). For each spot, the mean signal intensity was extracted and expressed as arbitraty florescence units.

SGEPPKSGDRSGYSS = molecular target: T2, SGEPPKSGDRSGYSS (human, also: covalently immobilized on glass through a hydrophilic linker); experiment: as above
T2 construct: Synthetic peptide covalently immobilized on glass through a hydrophilic linker (RepliTope microarray)
T2 peptide: SGEPPKSGDRSGYSS
Source text: as §1, §2

KTPPSSGEPPKSGDR = molecular target: T3, KTPPSSGEPPKSGDR (human); experiment: as above
T3 construct: Synthetic peptide covalently immobilized on glass through a hydrophilic linker (RepliTope microarray)
T3 peptide: KTPPSSGEPPKSGDR
Source text: as §1, §2

KSGDRSGYSSPGSPG [2] = molecular target: T4, KSGDRSGYSSPGSPG (human); experiment: as above
T4 construct: Synthetic peptide covalently immobilized on glass through a hydrophilic linker (RepliTope microarray)
T4 peptide: KSGDRSGYSSPGSPG
Source text: as §1, §2

SSGEPPKSGDRSGYS [3] = molecular target: T5, SSGEPPKSGDRSGYS (human, also: covalently immobilized on glass through a hydrophilic linker); experiment: as above
T5 construct: Synthetic peptide covalently immobilized on glass through a hydrophilic linker (RepliTope microarray)
T5 peptide: SSGEPPKSGDRSGYS
Source text: as §1, §2

GEPPKSGDRSGYSSP [4] = molecular target: T6, GEPPKSGDRSGYSSP (human); experiment: as above
T6 construct: Synthetic peptide covalently immobilized on glass through a hydrophilic linker (RepliTope microarray)
T6 peptide: GEPPKSGDRSGYSSP
Source text: as §1, §2

PPAPKTPPSSGEPPK = molecular target: T7, PPAPKTPPSSGEPPK (human); experiment: as above
T7 construct: Synthetic peptide covalently immobilized on glass through a hydrophilic linker (RepliTope microarray)
T7 peptide: PPAPKTPPSSGEPPK
Source text: as §1, §2

PKSGDRSGYSSPGSP = molecular target: T8, PKSGDRSGYSSPGSP (human); experiment: as above
T8 construct: Synthetic peptide covalently immobilized on glass through a hydrophilic linker (RepliTope microarray)
T8 peptide: PKSGDRSGYSSPGSP
Source text: as §1, §2

EPPKSGDRSGYSSPG = molecular target: T9, EPPKSGDRSGYSSPG (human); experiment: as above
T9 construct: Synthetic peptide covalently immobilized on glass through a hydrophilic linker (RepliTope microarray)
T9 peptide: EPPKSGDRSGYSSPG
Source text: as §1, §2

GDRSGYSSPGSPGTP = molecular target: T10, GDRSGYSSPGSPGTP (human); experiment: as above
T10 construct: Synthetic peptide covalently immobilized on glass through a hydrophilic linker (RepliTope microarray)
T10 peptide: GDRSGYSSPGSPGTP
Source text: as §1, §2

SGDRSGYSSPGSPGT = molecular target: T11, SGDRSGYSSPGSPGT (human, also: covalently immobilized on glass through a hydrophilic linker); experiment: as above
T11 construct: Synthetic peptide covalently immobilized on glass through a hydrophilic linker (RepliTope microarray)
T11 peptide: SGDRSGYSSPGSPGT
Source text: as §1, §2

PPKSGDRSGYSSPGS [5] = molecular target: T12, PPKSGDRSGYSSPGS (human); experiment: as above
T12 construct: Synthetic peptide covalently immobilized on glass through a hydrophilic linker (RepliTope microarray)
T12 peptide: PPKSGDRSGYSSPGS
Source text: as §1, §2

KSGDRSGYSSPGSPG [6] = molecular target: T13, KSGDRSGYSSPGSPG (human); experiment: as above
T13 construct: Synthetic peptide covalently immobilized on glass through a hydrophilic linker (RepliTope microarray)
T13 peptide: KSGDRSGYSSPGSPG
Source text: as §1, §2

APKTPPSSGEPPKSG = molecular target: T14, APKTPPSSGEPPKSG (human); experiment: as above
T14 construct: Synthetic peptide covalently immobilized on glass through a hydrophilic linker (RepliTope microarray)
T14 peptide: APKTPPSSGEPPKSG
Source text: as §1, §2

PPKSGDRSGYSSPGS [7] = molecular target: T15, PPKSGDRSGYSSPGS (human); experiment: as above
T15 construct: Synthetic peptide covalently immobilized on glass through a hydrophilic linker (RepliTope microarray)
T15 peptide: PPKSGDRSGYSSPGS
Source text: as §1, §2

SSGEPPKSGDRSGYS [8] = molecular target: T16, SSGEPPKSGDRSGYS (human, also: covalently immobilized on glass through a hydrophilic linker); experiment: as above
T16 construct: Synthetic peptide covalently immobilized on glass through a hydrophilic linker (RepliTope microarray)
T16 peptide: SSGEPPKSGDRSGYS
Source text: as §1, §2

GEPPKSGDRSGYSSP [9] = molecular target: T17, GEPPKSGDRSGYSSP (human); experiment: as above
T17 construct: Synthetic peptide covalently immobilized on glass through a hydrophilic linker (RepliTope microarray)
T17 peptide: GEPPKSGDRSGYSSP
Source text: as §1, §2

Chain of h-Tau 441 (human Tau isoform 2-441, Accession No. NP 005901.2) (P10636 other isoform, or with tags, fused parts or gaps limits assumed): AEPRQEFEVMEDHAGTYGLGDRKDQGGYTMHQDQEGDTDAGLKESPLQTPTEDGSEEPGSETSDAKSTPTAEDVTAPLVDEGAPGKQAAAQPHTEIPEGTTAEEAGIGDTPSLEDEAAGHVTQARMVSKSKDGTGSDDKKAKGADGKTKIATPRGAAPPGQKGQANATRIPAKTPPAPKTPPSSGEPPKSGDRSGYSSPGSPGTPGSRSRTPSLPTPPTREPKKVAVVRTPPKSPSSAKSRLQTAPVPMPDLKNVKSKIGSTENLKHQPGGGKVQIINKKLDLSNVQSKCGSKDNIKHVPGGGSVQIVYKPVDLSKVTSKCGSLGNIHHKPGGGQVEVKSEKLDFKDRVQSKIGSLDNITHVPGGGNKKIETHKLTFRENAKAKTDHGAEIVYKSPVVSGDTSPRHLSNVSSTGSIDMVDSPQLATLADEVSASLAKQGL

B1: monoclonal antibody 19G10 (antibody, mouse IgG2b, V domains shown)
VH: QVTLKESGPGILQPSQTLSLTCSFSGFSLSTSGMGVGWIRQPSGKGLEWLAHIWWDDDKYYNAVLKSRLTISKDTSKNQVFLKIASVDTADTATYYCARIGIDGPYAMDYWGQGTSVTVSS
VL: DIVMSQSPSSLAVSIGEKVTMSCKSSQSLLYSNNQKNYLAWYQRKPGQSPKLLIYWASTRESGVPDRFTGSGSGTDFTLTITSVKAEDLAVYYCQQYYSYPLWTFGGGTKLEIK
notes: also called mAb 19G10; 19G10 mAb
[1]
  Kd: 6.3 nM
  koff: 0.000176 s⁻¹
  kon: 25900 M⁻¹ s⁻¹
PPSSGEPPKSGDRSG
  Fluorescent Intensity: 62000 arbitrary fluorescence units
SGEPPKSGDRSGYSS
  Fluorescent Intensity: 59700 arbitrary fluorescence units
KTPPSSGEPPKSGDR
  Fluorescent Intensity: 55800 arbitrary fluorescence units
KSGDRSGYSSPGSPG [2]
  Fluorescent Intensity: 1550 arbitrary fluorescence units
SSGEPPKSGDRSGYS [3]
  Fluorescent Intensity: 62700 arbitrary fluorescence units
GEPPKSGDRSGYSSP [4]
  Fluorescent Intensity: 58900 arbitrary fluorescence units
PPAPKTPPSSGEPPK
  Fluorescent Intensity: 892 arbitrary fluorescence units
PKSGDRSGYSSPGSP
  Fluorescent Intensity: 49600 arbitrary fluorescence units
EPPKSGDRSGYSSPG
  Fluorescent Intensity: 63100 arbitrary fluorescence units
GDRSGYSSPGSPGTP
  Fluorescent Intensity: 588 arbitrary fluorescence units
SGDRSGYSSPGSPGT
  Fluorescent Intensity: 619 arbitrary fluorescence units
PPKSGDRSGYSSPGS [5]
  Fluorescent Intensity: 53400 arbitrary fluorescence units
KSGDRSGYSSPGSPG [6]
  Fluorescent Intensity: 1810 arbitrary fluorescence units
APKTPPSSGEPPKSG
  Fluorescent Intensity: 761 arbitrary fluorescence units
PPKSGDRSGYSSPGS [7]
  Fluorescent Intensity: 58700 arbitrary fluorescence units
SSGEPPKSGDRSGYS [8]
  Fluorescent Intensity: 55400 arbitrary fluorescence units
GEPPKSGDRSGYSSP [9]
  Fluorescent Intensity: 58000 arbitrary fluorescence units
